Laboratory results: publication PMC9838217, “Structure of SALL4 zinc finger domain reveals link between AT-rich DNA binding and Okihiro syndrome”

T1: SALL4 ZFC4 WT (Mus musculus, UniProt Q8BX22 870-940)
T1 sequence: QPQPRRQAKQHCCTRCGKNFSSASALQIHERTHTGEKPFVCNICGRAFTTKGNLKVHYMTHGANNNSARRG

T2: SALL4 ZFC4 R900W (Mus musculus, UniProt Q8BX22 870-940, R900W)
T2 sequence: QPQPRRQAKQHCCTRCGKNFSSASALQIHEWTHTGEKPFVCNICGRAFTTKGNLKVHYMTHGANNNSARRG

T3: SALL4 ZFC4 I897S (Mus musculus, UniProt Q8BX22 870-940, I897S)
T3 sequence: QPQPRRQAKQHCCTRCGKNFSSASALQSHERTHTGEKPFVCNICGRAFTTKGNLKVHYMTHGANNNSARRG

T4: SALL4 ZFC4 I897S+V925S (Mus musculus, UniProt Q8BX22 870-940, I897S;V925S)
T4 sequence: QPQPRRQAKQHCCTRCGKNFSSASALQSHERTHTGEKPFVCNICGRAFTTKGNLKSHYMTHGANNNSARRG


What was measured:
SALL4 ZFC4 WT [1] = target: T1, SALL4 ZFC4 WT; test: X-ray crystallography 2.76 A; Zn2+; 4 ZFC4 and 4 dsDNA per asymmetric unit, unevenly distributed; 50 mM MES pH 6.0, 20% PEG 3350, 60 mM MgCl2; EMSA: 68.1 nM DY681-dsDNA, 20 mM HEPES pH 7.5, 150 mM K acetate, 5 mM Mg acetate, 10 ng/ul poly(dI-dC), 30 min on ice; 4% native PAGE, 0.5x TBE, 4 C; conditions: protein: recombinant; tags: His6-GST removed with 3C protease; GPDS scar at N-terminus; blunt; self-complementary, 2 copies of strand
SALL4 ZFC4 R900W = target: T2, SALL4 ZFC4 R900W; test: EMSA; EMSA: 20 mM HEPES pH 7.5, 150 mM K acetate, 5 mM Mg acetate, 10 ng/ul poly(dI-dC), 68.1 nM DNA, on ice 30 min, gel at 4 C. HT-SELEX: 10 mM Tris-HCl pH 7.5, 50 m; conditions: protein: recombinant; tags: His6-GST removed with 3C protease; label: DY681
SALL4 ZFC4 I897S = target: T3, SALL4 ZFC4 I897S; test: as above; conditions: protein: recombinant; tags: His6-GST removed with 3C protease; label: DY681
SALL4 ZFC4 I897S+V925S = target: T4, SALL4 ZFC4 I897S+V925S; test: as above; conditions: protein: recombinant; tags: His6-GST removed with 3C protease; label: DY681
SALL4 ZFC4 WT [2] = target: T1, SALL4 ZFC4 WT; test: as above; conditions: protein: recombinant; tags: His6-GST removed with 3C protease; GPDS scar at N-terminus; label: DY681
SALL4 ZFC4 WT [3] = target: T1, SALL4 ZFC4 WT; test: EMSA; apparent; major groove mutant dataset; poly(dI-dC); EMSA: 68.1 nM DY681-dsDNA, 20 mM HEPES pH 7.5, 150 mM K acetate, 5 mM Mg acetate, 10 ng/ul poly(dI-dC), 30 min on ice; 4% native PAGE, 0.5x TBE, 4 C; conditions: protein: recombinant; tags: His6-GST removed with 3C protease; GPDS scar at N-terminus; label: DY681
SALL4 ZFC4 WT [4] = target: T1, SALL4 ZFC4 WT; test: EMSA; apparent; patient mutation dataset; poly(dI-dC); EMSA: 68.1 nM DY681-dsDNA, 20 mM HEPES pH 7.5, 150 mM K acetate, 5 mM Mg acetate, 10 ng/ul poly(dI-dC), 30 min on ice; 4% native PAGE, 0.5x TBE, 4 C; conditions: protein: recombinant; tags: His6-GST removed with 3C protease; GPDS scar at N-terminus; label: DY681

Binder	binding result (SALL4 ZFC4 WT [1])	Kd (SALL4 ZFC4 R900W)	Kd (SALL4 ZFC4 I897S)	Kd (SALL4 ZFC4 I897S+V925S)	Kd (SALL4 ZFC4 WT [2])	Kd (SALL4 ZFC4 WT [3])	Kd (SALL4 ZFC4 WT [4])
palindromic AT-rich crystallisation DNA (dsDNA) DNA 1: GATATTAATATC DNA 2: GATATTAATATC	binds	–	–	–	–	–	–
EMSA AT-rich probe (dsDNA) DNA 1: AAAAAATATTAAAAA DNA 2: TTTTTAATATTTTTT	–	23000 nM	4800 nM	5100 nM	615 ± 205 nM	760 nM	472 nM
